Results from article PMC10338342 (2023).

Key:
[1] = molecular target: T1, nucleosome core particle: human histone octamer (H2A, H2B, H3.1, H4) wrapped by DNA (human, UniProt P04908 1-130; P06899 1-126; P68431 1-136; P62805 1-103); test: FRET; NCP SHL-6.2; competition with His-MYC-MAX (800 nM)
[2] = molecular target: T1, nucleosome core particle: human histone …; test: FRET; NCP SHL+5.8; competition with His-MYC-MAX (625 nM)

Binder | IC50 [1] | IC50 [2]
CLOCK-BMAL1 bHLH PAS-AB heterodimer with BMAL1 R173A (complex) chain 1: VEEDDKDKAKRVSRNKSEKKRRDQFNVLIKELGSMLPGNARKMDKSTVLQKSIDFLRKHKETTAQSDASEIRQDWKPTFLSNEEFTQLMLEALDGFFLAIMTDGSIIYVSESVTSLLEHLPSDLVDQSIFNFIPEGEHSEVYKILSTHLLESDSLTPEYLKSKNQLEFCCHMLRGTIDPKEPSTYEYVRFIGNFKSLTSVSTSTHNGFEGTIQRTHRPSYEDRVCFVATVRLATPQFIKEMCTVEEPNEEFTSRHSLEWKFLFLDHRAPPIIGYLPFEVLGTSGYDYYHVDDLENLAKCHEHLMQYGKGKSCYYRFLTKGQQWIWLQTHYYITYHQWNSRPEFIVCTHTVVSYAEVRAERRRELGIEESL chain 2: not shown | > 3000 nM | –
CLOCK-BMAL1 bHLH PAS-AB heterodimer (complex) chain 1: VEEDDKDKAKRVSRNKSEKKRRDQFNVLIKELGSMLPGNARKMDKSTVLQKSIDFLRKHKETTAQSDASEIRQDWKPTFLSNEEFTQLMLEALDGFFLAIMTDGSIIYVSESVTSLLEHLPSDLVDQSIFNFIPEGEHSEVYKILSTHLLESDSLTPEYLKSKNQLEFCCHMLRGTIDPKEPSTYEYVRFIGNFKSLTSVSTSTHNGFEGTIQRTHRPSYEDRVCFVATVRLATPQFIKEMCTVEEPNEEFTSRHSLEWKFLFLDHRAPPIIGYLPFEVLGTSGYDYYHVDDLENLAKCHEHLMQYGKGKSCYYRFLTKGQQWIWLQTHYYITYHQWNSRPEFIVCTHTVVSYAEVRAERRRELGIEESL chain 2: not shown | 1180 nM | 2320 nM
CLOCK-BMAL1 bHLH PAS-AB heterodimer with BMAL1 Q385A (complex) chain 1: VEEDDKDKAKRVSRNKSEKKRRDQFNVLIKELGSMLPGNARKMDKSTVLQKSIDFLRKHKETTAQSDASEIRQDWKPTFLSNEEFTQLMLEALDGFFLAIMTDGSIIYVSESVTSLLEHLPSDLVDQSIFNFIPEGEHSEVYKILSTHLLESDSLTPEYLKSKNQLEFCCHMLRGTIDPKEPSTYEYVRFIGNFKSLTSVSTSTHNGFEGTIQRTHRPSYEDRVCFVATVRLATPQFIKEMCTVEEPNEEFTSRHSLEWKFLFLDHRAPPIIGYLPFEVLGTSGYDYYHVDDLENLAKCHEHLMQYGKGKSCYYRFLTKGQQWIWLQTHYYITYHQWNSRPEFIVCTHTVVSYAEVRAERRRELGIEESL chain 2: not shown | > 3000 nM | –
